Data published in doi:10.1101/2024.12.20.629688, “The PH domain in the ArfGAP ASAP1 drives catalytic activation through an unprecedented allosteric mechanism” (bioRxiv, 2024).

B1: Cys159-MTSL tagged myrArf1 (natural protein)
chain: not shown
modifications: N-myristoylated; MTSL spin label on the native Cys159
notes: human Arf1, UniProt P84077; source: E. coli BL21 Star (DE3), co-expressed with yeast NMT, purified; spin-labelled on nanodiscs
B2: ΔN14 ASAP1 PH domain, [339–451]ASAP1 (domain or fragment, UniProt Q9QWY8 339-451, looked up)
chain: GSEKKGFLLKKSDGIRKVWQRRKCAVKNGILTISHATSNRQPAKLNLLTCQVKPNAEDKKSFDLISHNRTYHFQAEDEQDYIAWISVLTNSKEEALTMAFRGEQSTGENSLED
notes: ASAP1 PH domain without residues 325-338 (the first 14 residues of the wt PH construct), residues 339-451; also called ^ΔN14PH

Columns and labels:
[1] = target: T1, ASAP1 ZA domain (Arf GAP and ankyrin repeat domains), [431–724]ASAP1 (UniProt Q9QWY8 431-724); test: NMR paramagnetic relaxation enhancement; Cys159-MTSL myrArf1 (non-hydrolysable GTP analog) alone or in complex with wt PH on nanodiscs, 100 μM, with 100 μM isolated isotopically labelled ZA domain; details: both partners purified
T1 construct: Isotopically labelled for the PRE experiment; also called ^ΔPHZA; isolated ZA domain; source: recombinant; expression not described
T1 sequence (looked up): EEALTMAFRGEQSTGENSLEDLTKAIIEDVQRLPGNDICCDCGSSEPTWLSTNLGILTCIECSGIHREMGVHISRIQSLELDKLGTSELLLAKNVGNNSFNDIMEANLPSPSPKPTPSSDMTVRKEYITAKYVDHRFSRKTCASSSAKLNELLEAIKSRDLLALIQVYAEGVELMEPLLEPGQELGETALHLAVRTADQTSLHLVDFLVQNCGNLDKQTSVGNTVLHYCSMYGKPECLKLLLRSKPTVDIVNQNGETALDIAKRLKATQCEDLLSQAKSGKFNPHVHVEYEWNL

[2] = target: T2, myristoylated human Arf1, GTP-bound form, anchored on membrane (nanodiscs or LUVs) (human, UniProt P84077 1-181, N-myristoylated); test: other fluorescence titration + other: inhibition of the GAP activity of wt PZA; proxies for affinity: (1) rate of mant-GTP dissociation from myrArf1 (Trp to mant FRET) against PH concentration, LUVs with 5 mol% PI(4,5)P2, excess GTP; (2) IC50 of PH domain on GTP hydrolysis in 3 min with myrArf1·GTP below the Km and 1 nM wt PZA; details: both partners purified
T2 construct: human Arf1 (ADP-ribosylation factor 1), UniProt P84077, co-expressed with yeast N-myristoyltransferase (UniProt P14743); Loaded with GTP, GTPγS or mant-GTP according to the experiment; Isotope-labelled for NMR; also called myrArf1; myr-Arf1
T2 sequence (P84077 whole entry, the tested form may be a part): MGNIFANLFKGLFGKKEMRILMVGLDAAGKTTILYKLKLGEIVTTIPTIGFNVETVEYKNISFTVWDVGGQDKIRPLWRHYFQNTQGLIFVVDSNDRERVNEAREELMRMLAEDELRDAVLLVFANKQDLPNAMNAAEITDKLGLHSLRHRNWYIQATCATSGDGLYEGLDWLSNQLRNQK

[3] = target: T2, myristoylated human Arf1, GTP-bound …; test: cell-based or functional assay

Binder | Kd [1] [µM] | affinity relative to wt PH [2] | “in trans” effect of the PH domain on GTP hydrolysis on myrArf1 by the isolated ZA domain (LUVs), relative to wt PH [3]
B1 | 100 to 1000 |  | 
B2 |  | ~0.5 fold of wt PH | 0.01 fold of wt PH
